Ten molecules from article PMC4888461 (Biochemical Journal, 2016) can be followed below.

Like-named read-outs stand apart in the source and are kept apart here.

Sequences and labels used below:
B1: His-tagged fl-Gremlin-1 (natural protein, human, UniProt O60565 25-184, looked up)
chain: KKKGSQGAIPPPDKAQHNDSEQTQSPQQPGSRNRGRGQGRGTAMPGEEVLESSQEALHVTERKYLKRDWCKTQPLKQTIHEEGCNSRTIINRFCYGQCNSFYIPRHIRKEEGSFQSCSFCKPKKFTTMMVTLNCPELQPPTKKKRVTRVKQCRCISIDLD
B2: His-tagged ΔN-Gremlin-1 (domain or fragment, human, UniProt O60565 72-184, looked up)
chain: EVLESSQEALHVTERKYLKRDWCKTQPLKQTIHEEGCNSRTIINRFCYGQCNSFYIPRHIRKEEGSFQSCSFCKPKKFTTMMVTLNCPELQPPTKKKRVTRVKQCRCISIDLD
B3: untagged ΔN-Gremlin-1 (domain or fragment, human, UniProt O60565 72-184, looked up)
chain: B2 chain
B4: BMP-2 (bone morphogenetic protein 2), wild type (ligand, UniProt P12643 283-396, looked up)
chain: QAKHKQRKRLKSSCKRHPLYVDFSDVGWNDWIVAPPGYHAFYCHGECPFPLADHLNSTNHAIVQTLVNSVNSKIPKACCVPTELSAISMLYLDENEKVVLKNYQDMVVEGCGCR

The target of data set [1] is His-tagged ΔN-Gremlin-1 (human) (UniProt O60565). The experiment in a line: BLI. A general note: In BLI a coated tip is dipped into the sample, and binding shifts an interference pattern.
Data set [2] addresses His-tagged fl-Gremlin-1 (human) (UniProt O60565). Kind of data set: BLI.
Data set [3] concerns the target His-tagged ΔN-Gremlin-1 (human) (UniProt O60565). The experiment in a line: BLI. This is another data set of the same source.
Data set [4] deals with His-tagged fl-Gremlin-1 (human) (UniProt O60565). Kind of data set: BLI. This is another data set of the same source.
Data set [5] deals with the molecule itself. Kind of data set: SEC-SAXS.
For data set [6], the target named is B4. Kind of data set: BLI.
Data set [7] has as its target B4. The experiment in a line: BLI. This is another data set of the same source.
Data set [8] deals with the molecule itself. Kind of data set: SEC-MALS. (In general: Size exclusion chromatography separates by hydrodynamic size, large species first.)
The target in data set [9] is B4. Kind of data set: BLI. The source holds these as a separate data set.
The target in data set [10] is B1. Kind of data set: BLI.
The target of data set [11] is B1. Kind of data set: BLI. This is another data set of the same source.

Consider BMP-2 mutant # 1 (49 F → A) (ligand), for which the values for the Kd in data set [1], in data set [2] and in data set [3] were 75.4 nM, 66.1 nM and 77.8 nM, respectively.
Take BMP-2 mutant # 2 (66 L → R) (ligand): the Kd in [1] is 44.7 nM; in data set [2] it was 45.9 nM; in [4] it was 32.5 nM.
On to “BMP-2 mutant # 3 (49 F → A, 66 L → R) (ligand)”, for which the Kd in data set [1] is 95.9 nM; in [2] it was 30.4 nM; in data set [3] it was 175 nM.
On to “BMP-2 mutant # 4 (33 V → T, 34 A → S) (ligand)”, for which the Kd stood at 176 nM in [1] and 47.2 nM in data set [2].
Take “BMP-2 mutant # 5 (98 V → T, 100 L → N) (ligand)”: the Kd in data set [2] and in [4] was 176 nM in each case. Further, the koff in [3] came to 0.001 s⁻¹.
In data set [1], “BMP-2 mutant # 6 (90 L→ Q, 92 L → R) (ligand)” registered a Kd of 301 nM.
As to B1, in data set [5], the “stoichiometry N” value was determined as 2.
On to B2, for which the results for the dissociation constant Kd in data set [6] and in data set [7] were 16.7 nM and 5.2 nM, respectively. In [6], this molecule displayed a koff of 0.005 s⁻¹. Besides, the “stoichiometry N” value in data set [8] was 2.
B3 displayed a Kd in data set [9] of 8.5 nM.
As to B4, in data set [10], the dissociation constant (Kd) stood at 9 nM and the koff was 0.0018 s⁻¹. In [11], this molecule returned a Kd of 5.6 nM.

As usually defined, the Kd is the concentration at which binding is half-saturated. Lower therefore signals tighter binding. By koff is commonly meant the rate constant with which the complex falls apart. A lower koff goes with a long-lived complex. Broadly, the stoichiometry N is the number of molecules, sites or subunits per partner or assembly.
